Laboratory results published in US20240352434, “COMPOSITIONS COMPRISING A VARIANT CAS12I3 POLYPEPTIDE AND USES THEREOF” (Arbor Biotechnologies, Inc., published 2024).
Numbering of substitutions follows the chain as printed.

T1: Cas12i3 T977R (Unidentified, T977R)
T1 chain: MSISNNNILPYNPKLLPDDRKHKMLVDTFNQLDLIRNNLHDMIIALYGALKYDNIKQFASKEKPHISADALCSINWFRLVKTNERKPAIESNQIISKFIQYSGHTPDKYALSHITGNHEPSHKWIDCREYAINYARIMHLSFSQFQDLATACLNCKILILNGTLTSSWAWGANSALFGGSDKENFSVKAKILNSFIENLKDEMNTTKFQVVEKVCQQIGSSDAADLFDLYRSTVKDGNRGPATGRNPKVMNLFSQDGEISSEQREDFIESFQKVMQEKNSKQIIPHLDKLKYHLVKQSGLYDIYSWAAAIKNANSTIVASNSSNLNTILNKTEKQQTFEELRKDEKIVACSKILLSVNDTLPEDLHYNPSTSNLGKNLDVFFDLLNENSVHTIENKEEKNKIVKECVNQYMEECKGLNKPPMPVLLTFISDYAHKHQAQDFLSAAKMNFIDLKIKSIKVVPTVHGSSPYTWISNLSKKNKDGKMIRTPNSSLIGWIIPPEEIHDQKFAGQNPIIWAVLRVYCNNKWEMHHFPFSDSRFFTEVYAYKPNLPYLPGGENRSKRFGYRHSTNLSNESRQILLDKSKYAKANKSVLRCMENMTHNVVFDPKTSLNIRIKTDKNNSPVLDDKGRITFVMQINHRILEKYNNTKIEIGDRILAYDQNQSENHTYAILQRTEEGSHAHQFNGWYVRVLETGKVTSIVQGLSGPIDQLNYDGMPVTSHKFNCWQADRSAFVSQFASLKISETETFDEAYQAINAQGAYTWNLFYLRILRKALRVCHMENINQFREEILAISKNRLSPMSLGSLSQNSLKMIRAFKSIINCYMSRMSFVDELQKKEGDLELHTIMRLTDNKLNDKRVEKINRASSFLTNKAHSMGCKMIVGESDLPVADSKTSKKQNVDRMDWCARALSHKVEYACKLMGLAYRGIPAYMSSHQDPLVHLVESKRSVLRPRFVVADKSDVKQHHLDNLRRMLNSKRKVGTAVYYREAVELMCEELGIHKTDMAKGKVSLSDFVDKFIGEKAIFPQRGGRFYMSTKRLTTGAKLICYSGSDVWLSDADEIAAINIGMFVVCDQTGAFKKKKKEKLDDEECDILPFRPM

T2: Cas12i3 N711R (Unidentified, N711R)
T2 chain: T1 chain with N711R, R977T

B1: EMX1_T5 crRNA ; EMX1_T5 target (ssRNA ; dsDNA)
RNA: AUAGUGUGUCCUUAGUUGACAUUAUUAUUCCCAUAGGGAAGG
DNA 1: TATTATTCCCATAGGGAAGG
DNA 2: CCTTCCCTATGGGAATAATA
B2: VEGFA_T2 crRNA ; VEGFA_T2 target (ssRNA ; dsDNA)
RNA: AUAGUGUGUCCUUAGUUGACAUAAUCCUCCACCAGUCAUGGU
DNA 1: AATCCTCCACCAGTCATGGT
DNA 2: ACCATGACTGGTGGAGGATT
B3: AAVS1_T3 crRNA ; AAVS1_T3 target (ssRNA ; dsDNA)
RNA: AUAGUGUGUCCUUAGUUGACAUGUGAGAAUGGUGCGUCCUAG
DNA 1: GTGAGAATGGTGCGTCCTAG
DNA 2: CTAGGACGCACCATTCTCAC

Molecular target: T1, Cas12i3 T977R
Experiment: cell_activity; fold change in % indels, HEK293T; PAM not stated in example
In short: (§1)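 HEK293T cells lipofected with Lipofectamine 2000 (crRNA omitted in negative controls). Harvested 72 h post-transfection and lysed in QuickExtract. Target loci amplified by two-round PCR and sequenced on NextSeq (150 cycles) to quantify % indels.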

Binder	binding signal
B1	1.04 fold of wild-type
B2	1.35 fold of wild-type
B3	2.37 fold of wild-type

Molecular target: T2, Cas12i3 N711R
Experiment: as above
In short: as §1

Binder	binding signal
B1	1.56 fold of wild-type
B2	2.17 fold of wild-type
B3	2.79 fold of wild-type
